Key:
[1] = target: T1, Vika recombinase monomer with Q330R mutation
T1 chain: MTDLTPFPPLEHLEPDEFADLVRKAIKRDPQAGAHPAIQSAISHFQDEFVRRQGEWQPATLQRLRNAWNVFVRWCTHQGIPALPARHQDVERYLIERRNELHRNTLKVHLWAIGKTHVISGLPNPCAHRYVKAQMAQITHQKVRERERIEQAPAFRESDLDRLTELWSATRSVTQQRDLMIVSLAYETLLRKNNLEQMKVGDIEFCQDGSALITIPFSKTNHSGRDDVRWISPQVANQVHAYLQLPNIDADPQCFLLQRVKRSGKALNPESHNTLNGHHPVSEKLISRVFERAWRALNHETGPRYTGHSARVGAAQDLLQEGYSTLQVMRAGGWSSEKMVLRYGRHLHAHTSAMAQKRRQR

[2] = target: T2, Cre recombinase monomer with K201P mutation
T2 chain: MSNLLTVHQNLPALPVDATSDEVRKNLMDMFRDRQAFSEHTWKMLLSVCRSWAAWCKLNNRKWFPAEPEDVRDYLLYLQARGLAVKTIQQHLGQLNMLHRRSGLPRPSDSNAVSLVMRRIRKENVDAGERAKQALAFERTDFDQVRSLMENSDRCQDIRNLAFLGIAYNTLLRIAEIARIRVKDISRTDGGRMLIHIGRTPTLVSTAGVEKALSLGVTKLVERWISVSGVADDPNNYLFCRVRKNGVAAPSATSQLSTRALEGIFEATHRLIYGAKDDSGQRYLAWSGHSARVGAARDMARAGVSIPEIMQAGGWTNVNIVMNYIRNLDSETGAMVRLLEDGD

[3] = target: T3, Cre recombinase monomer with W315I mutation
T3 chain: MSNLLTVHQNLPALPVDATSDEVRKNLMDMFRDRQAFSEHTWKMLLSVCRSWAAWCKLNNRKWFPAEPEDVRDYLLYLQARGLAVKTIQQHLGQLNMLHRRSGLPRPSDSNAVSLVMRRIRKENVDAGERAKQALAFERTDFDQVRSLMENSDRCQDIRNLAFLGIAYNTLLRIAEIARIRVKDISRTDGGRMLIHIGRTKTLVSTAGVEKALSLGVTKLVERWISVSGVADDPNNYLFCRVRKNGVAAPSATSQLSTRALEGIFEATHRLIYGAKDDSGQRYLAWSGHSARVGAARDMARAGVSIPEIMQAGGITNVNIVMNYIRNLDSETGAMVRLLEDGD

[4] = target: T4, Cre recombinase monomer with Q311R mutation
T4 chain: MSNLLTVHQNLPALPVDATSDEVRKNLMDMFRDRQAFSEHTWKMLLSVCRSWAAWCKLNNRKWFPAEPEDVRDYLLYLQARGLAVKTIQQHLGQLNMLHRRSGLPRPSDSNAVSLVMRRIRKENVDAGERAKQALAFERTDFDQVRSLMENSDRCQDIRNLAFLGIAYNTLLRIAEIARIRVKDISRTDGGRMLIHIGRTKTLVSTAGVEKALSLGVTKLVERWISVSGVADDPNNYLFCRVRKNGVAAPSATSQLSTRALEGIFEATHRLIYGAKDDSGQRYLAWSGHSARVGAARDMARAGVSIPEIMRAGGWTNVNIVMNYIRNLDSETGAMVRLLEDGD

[5] = target: T5, Cre recombinase monomer with R292G mutation
T5 chain: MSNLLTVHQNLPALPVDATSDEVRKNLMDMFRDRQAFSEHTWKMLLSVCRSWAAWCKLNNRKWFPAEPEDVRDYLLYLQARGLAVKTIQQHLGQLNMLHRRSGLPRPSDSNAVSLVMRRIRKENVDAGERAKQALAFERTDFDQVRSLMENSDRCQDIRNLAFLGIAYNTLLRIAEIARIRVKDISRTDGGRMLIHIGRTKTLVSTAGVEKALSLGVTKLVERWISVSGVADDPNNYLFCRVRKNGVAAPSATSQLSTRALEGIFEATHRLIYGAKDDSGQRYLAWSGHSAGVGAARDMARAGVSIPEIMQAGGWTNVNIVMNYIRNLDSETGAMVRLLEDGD

[6] = target: T6, Cre recombinase monomer with W315R mutation
T6 chain: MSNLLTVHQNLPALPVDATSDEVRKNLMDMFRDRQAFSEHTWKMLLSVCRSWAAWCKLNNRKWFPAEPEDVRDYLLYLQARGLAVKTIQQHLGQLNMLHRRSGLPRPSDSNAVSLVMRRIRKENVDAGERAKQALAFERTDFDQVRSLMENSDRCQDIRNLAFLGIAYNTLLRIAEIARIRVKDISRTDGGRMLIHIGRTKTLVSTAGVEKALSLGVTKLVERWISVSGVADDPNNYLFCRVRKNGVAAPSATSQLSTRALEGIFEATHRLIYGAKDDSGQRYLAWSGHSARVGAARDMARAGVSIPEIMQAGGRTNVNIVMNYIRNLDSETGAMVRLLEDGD

[7] = target: T7, Cre recombinase monomer with K201R mutation
T7 chain: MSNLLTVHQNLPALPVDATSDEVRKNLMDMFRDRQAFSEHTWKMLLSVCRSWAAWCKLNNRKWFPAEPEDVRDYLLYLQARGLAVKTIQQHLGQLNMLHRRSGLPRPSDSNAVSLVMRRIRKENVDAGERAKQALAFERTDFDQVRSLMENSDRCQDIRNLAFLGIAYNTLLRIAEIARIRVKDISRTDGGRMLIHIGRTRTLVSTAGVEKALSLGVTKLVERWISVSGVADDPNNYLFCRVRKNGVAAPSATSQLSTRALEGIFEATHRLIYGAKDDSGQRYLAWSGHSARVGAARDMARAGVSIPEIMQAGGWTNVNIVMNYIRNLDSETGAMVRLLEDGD

[8] = target: T8, Cre recombinase monomer with Y324C mutation
T8 chain: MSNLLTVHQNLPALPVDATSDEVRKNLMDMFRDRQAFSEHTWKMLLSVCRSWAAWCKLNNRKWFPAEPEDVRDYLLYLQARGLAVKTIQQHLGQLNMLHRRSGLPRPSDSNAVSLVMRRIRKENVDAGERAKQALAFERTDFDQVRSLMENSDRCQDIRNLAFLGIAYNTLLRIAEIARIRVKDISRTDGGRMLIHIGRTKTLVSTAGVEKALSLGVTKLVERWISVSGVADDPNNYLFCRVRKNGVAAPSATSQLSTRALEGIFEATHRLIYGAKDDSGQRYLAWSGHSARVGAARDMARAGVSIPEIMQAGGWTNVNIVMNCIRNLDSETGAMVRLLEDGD

[9] = target: T9, Cre recombinase monomer with Y324F mutation
T9 chain: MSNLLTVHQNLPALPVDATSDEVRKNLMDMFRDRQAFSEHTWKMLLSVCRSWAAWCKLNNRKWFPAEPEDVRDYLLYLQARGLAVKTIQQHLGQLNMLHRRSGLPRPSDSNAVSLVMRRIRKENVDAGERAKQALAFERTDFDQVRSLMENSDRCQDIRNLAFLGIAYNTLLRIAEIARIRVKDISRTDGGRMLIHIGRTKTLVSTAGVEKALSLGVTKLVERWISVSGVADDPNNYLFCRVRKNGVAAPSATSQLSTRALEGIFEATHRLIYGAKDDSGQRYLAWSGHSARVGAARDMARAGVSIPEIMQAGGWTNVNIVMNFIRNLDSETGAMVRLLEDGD

[10] = target: T10, Cre recombinase monomer with W315T mutation
T10 chain: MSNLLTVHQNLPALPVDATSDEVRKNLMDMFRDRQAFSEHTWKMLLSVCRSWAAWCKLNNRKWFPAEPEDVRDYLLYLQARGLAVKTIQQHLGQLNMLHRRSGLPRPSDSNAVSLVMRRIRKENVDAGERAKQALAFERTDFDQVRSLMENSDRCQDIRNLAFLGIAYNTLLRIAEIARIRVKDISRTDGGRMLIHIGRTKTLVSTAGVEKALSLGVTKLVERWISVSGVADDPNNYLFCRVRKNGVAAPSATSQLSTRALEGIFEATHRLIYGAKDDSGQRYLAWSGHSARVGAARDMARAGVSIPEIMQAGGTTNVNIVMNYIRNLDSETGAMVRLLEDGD

[11] = target: T11, Cre recombinase monomer with K201I mutation
T11 chain: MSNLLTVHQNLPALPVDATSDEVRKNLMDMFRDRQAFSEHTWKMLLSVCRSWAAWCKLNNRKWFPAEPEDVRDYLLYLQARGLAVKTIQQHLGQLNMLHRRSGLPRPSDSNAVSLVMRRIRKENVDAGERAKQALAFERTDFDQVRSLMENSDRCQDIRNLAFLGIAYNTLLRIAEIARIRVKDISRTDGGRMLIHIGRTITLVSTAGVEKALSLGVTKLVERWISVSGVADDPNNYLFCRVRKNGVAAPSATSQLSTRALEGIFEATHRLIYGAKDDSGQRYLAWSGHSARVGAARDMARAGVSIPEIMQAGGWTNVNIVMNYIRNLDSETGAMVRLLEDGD

B1: Vika recombinase monomer with K219R mutation (protein)
chain: MTDLTPFPPLEHLEPDEFADLVRKAIKRDPQAGAHPAIQSAISHFQDEFVRRQGEWQPATLQRLRNAWNVFVRWCTHQGIPALPARHQDVERYLIERRNELHRNTLKVHLWAIGKTHVISGLPNPCAHRYVKAQMAQITHQKVRERERIEQAPAFRESDLDRLTELWSATRSVTQQRDLMIVSLAYETLLRKNNLEQMKVGDIEFCQDGSALITIPFSRTNHSGRDDVRWISPQVANQVHAYLQLPNIDADPQCFLLQRVKRSGKALNPESHNTLNGHHPVSEKLISRVFERAWRALNHETGPRYTGHSARVGAAQDLLQEGYSTLQVMQAGGWSSEKMVLRYGRHLHAHTSAMAQKRRQR
recombination on vox excision substrate in E. coli [1]: A similar activity profile (although with some loss of activity) was seen when Vika^K219R and Vika^Q330R were co-expressed on the vox target sequence

B2: Cre recombinase monomer with K201D mutation (protein)
chain: MSNLLTVHQNLPALPVDATSDEVRKNLMDMFRDRQAFSEHTWKMLLSVCRSWAAWCKLNNRKWFPAEPEDVRDYLLYLQARGLAVKTIQQHLGQLNMLHRRSGLPRPSDSNAVSLVMRRIRKENVDAGERAKQALAFERTDFDQVRSLMENSDRCQDIRNLAFLGIAYNTLLRIAEIARIRVKDISRTDGGRMLIHIGRTDTLVSTAGVEKALSLGVTKLVERWISVSGVADDPNNYLFCRVRKNGVAAPSATSQLSTRALEGIFEATHRLIYGAKDDSGQRYLAWSGHSARVGAARDMARAGVSIPEIMQAGGWTNVNIVMNYIRNLDSETGAMVRLLEDGD
Median dimer activity (recombination on loxP) [2]: 70%

B3: Cre recombinase monomer with K201Q mutation (protein)
chain: MSNLLTVHQNLPALPVDATSDEVRKNLMDMFRDRQAFSEHTWKMLLSVCRSWAAWCKLNNRKWFPAEPEDVRDYLLYLQARGLAVKTIQQHLGQLNMLHRRSGLPRPSDSNAVSLVMRRIRKENVDAGERAKQALAFERTDFDQVRSLMENSDRCQDIRNLAFLGIAYNTLLRIAEIARIRVKDISRTDGGRMLIHIGRTQTLVSTAGVEKALSLGVTKLVERWISVSGVADDPNNYLFCRVRKNGVAAPSATSQLSTRALEGIFEATHRLIYGAKDDSGQRYLAWSGHSARVGAARDMARAGVSIPEIMQAGGWTNVNIVMNYIRNLDSETGAMVRLLEDGD
Median dimer activity (recombination on loxP) [3]: 30%
Median dimer activity (recombination on loxP) [4]: 94%
Median dimer activity (recombination on loxP) [5]: 58%

B4: Cre double mutant CreK201R+Q311R (both mutations in the same monomer) (protein)
chain: MSNLLTVHQNLPALPVDATSDEVRKNLMDMFRDRQAFSEHTWKMLLSVCRSWAAWCKLNNRKWFPAEPEDVRDYLLYLQARGLAVKTIQQHLGQLNMLHRRSGLPRPSDSNAVSLVMRRIRKENVDAGERAKQALAFERTDFDQVRSLMENSDRCQDIRNLAFLGIAYNTLLRIAEIARIRVKDISRTDGGRMLIHIGRTRTLVSTAGVEKALSLGVTKLVERWISVSGVADDPNNYLFCRVRKNGVAAPSATSQLSTRALEGIFEATHRLIYGAKDDSGQRYLAWSGHSARVGAARDMARAGVSIPEIMRAGGWTNVNIVMNYIRNLDSETGAMVRLLEDGD
recombination on loxP excision substrate in E. coli: showed no observable recombination of the loxP target sequence

B5: Cre recombinase monomer with K201F mutation (protein)
chain: MSNLLTVHQNLPALPVDATSDEVRKNLMDMFRDRQAFSEHTWKMLLSVCRSWAAWCKLNNRKWFPAEPEDVRDYLLYLQARGLAVKTIQQHLGQLNMLHRRSGLPRPSDSNAVSLVMRRIRKENVDAGERAKQALAFERTDFDQVRSLMENSDRCQDIRNLAFLGIAYNTLLRIAEIARIRVKDISRTDGGRMLIHIGRTFTLVSTAGVEKALSLGVTKLVERWISVSGVADDPNNYLFCRVRKNGVAAPSATSQLSTRALEGIFEATHRLIYGAKDDSGQRYLAWSGHSARVGAARDMARAGVSIPEIMQAGGWTNVNIVMNYIRNLDSETGAMVRLLEDGD
Median dimer activity (recombination on loxP) [6]: 29%
Median dimer activity (recombination on loxP) [7]: 59%
Median dimer activity (recombination on loxP) [8]: 98%
Median dimer activity (recombination on loxP) [4]: 94%
Median dimer activity (recombination on loxP) [9]: 54%
Median dimer activity (recombination on loxP) [10]: 41%
Median dimer activity (recombination on loxP) [11]: 72%

Source: patent US20230183713A1, “SITE-SPECIFIC RECOMBINASES FOR EFFICIENT AND SPECIFIC GENOME EDITING” (TECHNISCHE UNIVERSITÄt DRESDEN, published 2023)
